Earlier results on 1 substance are cited in publication PMC8604983, “A glucagon analogue decreases body weight in mice via signalling in the liver” (Scientific Reports, 2021).

For the data set the following is noted: in rodents. On the procedure:
Native glucagon has a half-life of approximately 2 min in rodents. To study the effects of sustained GCGR activation, we developed a glucagon analogue (GCG104) through modification of OXM with the aim of reducing its GLP-1R activity and decreasing its rate of clearance. Select amino acid substitutions were made and a C18 lipidated tail was added (Fig. 1a).

glucagon [Native glucagon]: the half-life entry is recorded as “approximately 2 min”.
